# Patent US11858993B2, “Multi-specific antibodies with affinity for human A33 antigen and DOTA metal complex and uses thereof” (Memorial Sloan Kettering Cancer Center, priority 2015, dated 2024)
# Values joined by “and” are separate entries in the source; they are usually repeats but may differ in a detail not shown here. Equal entries are not always repeated. “Also recorded” adds a separate entry of the source.
# Legend:
# SW1222 tumor = experiment: PRIT optimization biodistribution (huA33-C825 dose, clearing agent dose), 24 h p.i. of ^177Lu-DOTA-Bn; details: for tumor-to-organ ratio, kidney: 24 h p.i.
# Procedure: Next, additional biodistribution experiments were performed to optimize the CA dose during PRIT with 0.25 mg (1.19 nmol) as the huA33-C825 dose. Groups of tumor-bearing mice (n=3 to 4 per group) with were injected with huA33-C825, followed 24 h later with either: saline (i.e. vehicle), 2.4% (w/w, with respect to 0.25 mg huA33-C825 dose), 5% (w/w), 10% (w/w), or 25% (w/w) CA doses (0-62.5 μg/mouse). After an additional 4 h, mice were injected with 5.6 MBq of ^177Lu-DOTA-Bn, and sacrificed 24 h later for biodistribution analysis.
# Next, ^177Lu-DOTA-Bn dose titration studies were performed using the optimized PRIT doses for huA33-C825 and CA. For ^177Lu-DOTA-Bn dose titration studies, the ^177Lu-activity biodistribution data for tumor and critical select tissues (blood, liver, spleen, and kidneys) was compared between ^177Lu-DOTA-Bn dose groups as both % ID/g and absolute uptake (kBq/g; see FIGS. 4A, 4B). Finally, a single-time point biodistribution experiment at 24 h p.i. of ^131I-trace labeled huA33-C825 (0.39-0.40 MBq with cold huA33-C825 added to 1.19 nmol) was performed in SW1222-tumor bearing mice to estimate the absolute antibody uptake of huA33-C825 in tumor (as pmol/g) during PRIT.
# All animal experiments were approved by the Institutional Animal Care and Use Committee of Memorial Sloan Kettering Cancer Center and institutional guidelines for the proper and humane use of animals in research were followed. Athymic nu/nu female mice (6-8 weeks old; Harlan Sprague Dawley) were allowed to acclimate in the vivarium for at least one week. […] All reagents were given intravenously (i.v.) via the lateral tail vein. […] In addition, huA33-C825 was trace radiolabeled with I-131 to estimate tumor uptake during PRIT.
# [1] = tested on: kidney, bone marrow, liver, and spleen; experiment: Toxicity: weight, appearance and anatomic pathology after PRIT; assay type: in vivo; details: PRIT-treated SW1222 mice, dual-cycle; out to 140 days where stated
# Procedure: For dual-cycle PRIT given at 10 and 17 days post tumor inoculation, there is marked response at all dose levels with complete responses observed in a dose dependent manner. […] Toxicity was determined by monitoring weight and overall appearance at least three times per week, as well as histopathologic assessment of liver, kidney, spleen and bone marrow by MSKCC Lab of Comparative Pathology.
# For 3/3 mice, the kidney, bone marrow, and liver were normal.
# SW1222 s.c. xenografts = experiment: Three-cycle theranostic PRIT with nanoSPECT/CT dosimetry; assay type: in vivo, Nude mice
# Procedure: Nude mice bearing established SW1222 s.c. xenografts (n=20; tumor volume=102±40 mm^3; average±standard deviation (SD)) underwent treatment (n=5-10/group) with either: no treatment (n=5), ^177Lu-DOTA-Bn only (n=5), or a three-cycle PRIT regimen consisting of anti-GPA33 PRIT+55 MBq of ^177Lu-DOTA-Bn (n=10; total: 165 MBq). Serial nanoSPECT/CT imaging was conducted on five randomly selected mice undergoing DPRIT up to 160 hours post-injection of the first cycle of ^177Lu-DOTA-Bn for dosimetry calculations.
# [2] = tested on: A33-positive SW1222 tumor; experiment: Estimation of absorbed doses and therapeutic index for PRIT; assay type: in vivo, mice; details: PRIT 0.25 mg huA33-C825, 62.5 μg CA, ^177Lu-DOTA-Bn; 2-120 h p.i. data
# Source text: Exemplary estimates of absorbed doses for tumor and select normal tissue in female athymic mice carrying s.c. A33 positive-colorectal cancer tumors for PRIT including the optimum huA33-C825 and dextran-clearing agent doses are set forth in Table 6.
# BSA-(Y)-DOTA-Bn = experiment: Biacore T100 surface plasmon resonance, binding to BSA-(Y)-DOTA-Bn
# Procedure: Binding affinity was measured by Biacore T100.
# Biacore T100 Biosensor, CM5 sensor chip, and related reagents were purchased from GE Healthcare. Recombinant human A33 protein was purchased from Novoprotein. A BSA-(Y)-DOTA-Bn conjugate was prepared as described (Cheal et al., supra). A33 and DOTA antigens were immobilized using the Amino Coupling kit (GE Healthcare). Purified bispecific antibodies and control antibodies were analyzed, and data were fit to a bivalent analyte model using the Biacore T100 evaluation software as described (Cheal et al., supra).
# [3] = tested on: A33-positive SW1222 xenografts; experiment: Dual-cycle PRIT therapy study; details: for Complete Response / Cures at 40 d post-treatment / absorbed radiation dose, Blood / absorbed radiation dose, Kidney / absorbed radiation dose, Tumor: Dual-cycle
# Source text: In a second therapy study, dual-cycle huA33-C825 PRIT treatment was investigated.
# The following definitions were used to describe treatment response: a complete response (CR) is defined as tumor shrinkage to <100 mm^3. […] Excessive tumor burden is defined as >2000 mm^3.
# [4] = Triple-cycle, + 55.5 MBq (×3), 165.0 MBq
# [5] = Biacore T100, bivalent analyte model
# [6] = dual-cycle PRIT, 66.6 or 111 MBq ^177Lu-DOTA-Bn pooled
# [7] = two cycles of PRIT+55.5 (total 111.0 MBq)
substance,measurement,setting,value
huA33-C825: bispecific antibody: humanized A33 IgG1 with murine C825 anti-DOTA-Bn scFv linked to the light chain C-terminus,"tumor-to-organ ratio, kidney",SW1222 tumor; 65 μg CA dose level (25% (w/w)),18.4±13.4
same,reduction in ^177Lu-DOTA-Bn tumor uptake compared with PRIT with saline,"SW1222 tumor; mouse, in vivo",~50%
same,"tumor-to-organ ratio, blood","SW1222 tumor; mouse, in vivo",2.2±0.4
same,"tumor-to-organ ratio, muscle","SW1222 tumor; mouse, in vivo",23.2±3.8
same,"tumor-to-organ ratio, kidney",SW1222 tumor; saline (no CA),4.9±0.6
same,"toxicity (clinical, histologic)",[1],no clinical or histologic evidence of radiation induced toxicities; also recorded: no toxicity was observed; also recorded: no detectable toxicity
same,mice cured,SW1222 s.c. xenografts; 3 cycle dosing regimen,10/10
same,Complete Response,SW1222 s.c. xenografts; [4],10/10
same,Cures at 40 d post-treatment,SW1222 s.c. xenografts; [4],10/10
same,"histopathologic findings of kidney, liver, spleen, and bone/marrow","SW1222 s.c. xenografts; mouse, in vivo",no remarkable histopathologic findings
same,radiation dose to blood,"SW1222 s.c. xenografts; mouse, in vivo",150 rads
same,radiation dose to kidney,"SW1222 s.c. xenografts; mouse, in vivo",875 rads
same,toxicity,SW1222 s.c. xenografts; three-cycle PRIT (total 165 MBq),without detectable toxicity; also recorded: no obvious toxicities
same,tumor-free survival at 100 days,"SW1222 s.c. xenografts; three-cycle PRIT, 55 MBq/cycle (total 165 MBq)",all treated animals
same,"estimated absorbed dose, Blood",[2],0.9 cGy/MBq
same,"estimated absorbed dose, Bone",[2],0.6 cGy/MBq
same,"estimated absorbed dose, Heart",[2],1.4 cGy/MBq
same,"estimated absorbed dose, Kidneys",[2],5.3 cGy/MBq
same,"estimated absorbed dose, Large Intestine",[2],0.8 cGy/MBq
same,"estimated absorbed dose, Liver",[2],6.3 cGy/MBq
same,"estimated absorbed dose, Lung",[2],1.8 cGy/MBq
same,"estimated absorbed dose, Muscle",[2],0.3 cGy/MBq
same,"estimated absorbed dose, Small Intestine",[2],0.5 cGy/MBq
same,"estimated absorbed dose, Spleen",[2],6.6 cGy/MBq
same,"estimated absorbed dose, Stomach",[2],0.6 cGy/MBq
same,"estimated absorbed dose, Tumor",[2],65.8 cGy/MBq
same,koff,BSA-(Y)-DOTA-Bn; [5],0.00022 s⁻¹
same,kon,BSA-(Y)-DOTA-Bn; [5],19000 M⁻¹ s⁻¹
same,Kd,BSA-(Y)-DOTA-Bn; FIG. 2B,11.6 nM
same,Complete Response,"[3]; + 11.1 MBq (×2), 22.2 MBq",2/5
same,Cures at 40 d post-treatment,"[3]; + 11.1 MBq (×2), 22.2 MBq",1/5
same,"absorbed radiation dose, Blood","[3]; + 11.1 MBq (×2), 22.2 MBq",0.2 Gy
same,"absorbed radiation dose, Kidney","[3]; + 11.1 MBq (×2), 22.2 MBq",1.2 Gy
same,"absorbed radiation dose, Tumor","[3]; + 11.1 MBq (×2), 22.2 MBq",14.6 Gy
same,Complete Response,"[3]; + 33.3 MBq (×2), 66.6 MBq",5/5
same,Cures at 40 d post-treatment,"[3]; + 33.3 MBq (×2), 66.6 MBq",2/5
same,"absorbed radiation dose, Blood","[3]; + 33.3 MBq (×2), 66.6 MBq",0.6 Gy
same,"absorbed radiation dose, Kidney","[3]; + 33.3 MBq (×2), 66.6 MBq",3.5 Gy
same,"absorbed radiation dose, Tumor","[3]; + 33.3 MBq (×2), 66.6 MBq",43.8 Gy
same,Complete Response,"[3]; + 55.5 MBq (×2), 111.0 MBq",4/4
same,Cures at 40 d post-treatment,"[3]; + 55.5 MBq (×2), 111.0 MBq",2/4
same,"absorbed radiation dose, Blood","[3]; + 55.5 MBq (×2), 111.0 MBq",1.0 Gy
same,"absorbed radiation dose, Kidney","[3]; + 55.5 MBq (×2), 111.0 MBq",5.9 Gy
same,"absorbed radiation dose, Tumor","[3]; + 55.5 MBq (×2), 111.0 MBq",73.0 Gy
same,alive without recurrence at more than 140 d,[3]; [6],2/9
same,complete responses,[3]; [6],9/9
same,"complete response, share of test subjects",[3]; dual-cycle dosing,approximately 80%
same,time to reach 500 mm^3 in recurrent tumors (individual mice),[3]; [7],34 days and 45 days and 42 days
same,tumor size at time of sacrifice (single mouse),[3]; [7],44 mm^3
